The values that follow come from paper PMC8618880, “Discovery of GOT1 Inhibitors from a Marine-Derived Aspergillus terreus That Act against Pancreatic Ductal Adenocarcinoma” (Marine Drugs, 2021).

This data set deals with the molecule itself. Description: crystal structure; GOT1 (16 mg/mL) mixed with 40 uM AH, sitting-drop vapor diffusion, 18 °C, 0.1 M HEPES pH 7.5, 12% w/v PEG 3350; 2.6 Å; two subunits (chains A and B) form the dimer.

B1: glutamic oxaloacetate transaminase 1 (GOT1) (enzyme, human)
chain: PPSVFAEVPQAQPVLVFKLTADFREDPDPRKVNLGVGAYRTDDCHPWVLPVVKKVEQKIANDNSLNHEYLPILGLAEFRSCASRLALGDDSPALKEKRVGGVQSLGGTGALRIGADFLARWYNGTNNKNTPVYVSSPTWENHNAVFSAAGFKDIRSYRYWDAEKRGLDLQGFLNDLENAPEFSIVVLHACAHNPTGIDPTPEQWKQIASVMKHRFLFPFFDSAYQGFASGNLERDAWAIRYFVSEGFEFFCAQSFSKNFGLYNERVGNLTVVGKEPESILQVLSQMEKIVRITWSNPPAQGARIVASTLSNPELFEEWTGNVKTMADRILTMRSELRARLEALKTPGTWNHITDQIGMFSFTGLNPKQVEYLVNEKHIYLLPSGRINVSGLTTKNLDYVATSIHEAVTKIQ
modifications: in the crystal: C17 atom of AH covalently linked to the N atom of Lys259 in chain A; PLP in chain B
notes: GOT1, expression construct pET26b-got1; Domains described in the structure span residues 17-411; also called WT-GOT1; glutamic-oxaloacetic transaminase 1; source: E. coli BL21 (DE3), purified (HisTrap FF, Resource Q, Superdex200 Increase)
B1: the binding result is recorded as “binds”.
